This experiment deals with T1, His-Sox2 (human, UniProt P48431 1-317).
T1 construct: Sox2, human, cloned into pGEX-6p-1 or pET-28a (+) for the GST pull-down; source: E. coli BL21, purified
Nature of the experiment: pull-down; GST-tagged protein on glutathione-Sepharose 4B beads incubated with His-tagged protein for 24 h at 4 °C; washed four times with 100 mM NaCl, 10 mM Tris, 50 mM NaF, 2 mM EDTA, 0.5 mM Na3VO4, 1% Nonidet P40; western blot. The settings on record: both partners purified. (A western blot detects proteins with antibodies after separation by electrophoresis.)

T1 sequence (P48431 whole entry): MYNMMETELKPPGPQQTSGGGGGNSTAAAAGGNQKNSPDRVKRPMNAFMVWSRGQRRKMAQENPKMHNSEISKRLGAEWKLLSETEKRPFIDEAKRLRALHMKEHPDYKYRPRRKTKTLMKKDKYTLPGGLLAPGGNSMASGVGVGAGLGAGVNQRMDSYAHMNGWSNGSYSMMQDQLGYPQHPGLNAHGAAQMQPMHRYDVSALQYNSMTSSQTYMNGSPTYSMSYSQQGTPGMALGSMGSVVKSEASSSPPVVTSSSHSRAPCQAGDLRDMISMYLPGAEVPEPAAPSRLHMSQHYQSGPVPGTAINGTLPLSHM

B1: GST-OTUD7B-ZF (811–843) (domain or fragment, human, UniProt Q6GQQ9 811-843, looked up)
chain: GHPETNNFCSCCYREELRRREREPDGELLVHRF
notes: OTUD7B, human, C-terminal zinc finger (ZF) domain, residues 811-843; also called OTUD7B ZF domain; source: E. coli BL21, purified
As to B1, the binding result is recorded as “binds”.

The values above are taken from PMC6220269, “Dynamic ubiquitylation of Sox2 regulates proteostasis and governs neural progenitor cell differentiation” (Nature Communications, 2018).
